This data set is described as follows: self-splicing fitness, log relative to wild type (ln ratio); higher = more splicing; Tetrahymena group I intron in knt gene, E. coli kanamycin selection, DiMSum; sequences stand for … in CUCUCU…GGAGGGAAAAGUUAUCAGGCAUGCACCUGGUAGCUAGUCUUUAAACCAAUAGAUUGCAUCGGUUUAAAAGGCAAGACCGUCAAAUUGCGGGAAAGGGGUCAACAGCCGUUCAGUACCAAGUCUCAGGGGAAACUUUGAGAUGGCCUUGCAAAGGGUAUGGUAAUAAGCUGACGGACAUGGUCCUAACCACGCAGCCAAGUCCUAAGUCAACAGAUCUUCUGUUGAUAUGGAUGCAGUUCACAGACUAAAUGUCGGUCGGGGAAGAUGUAUUCUUCUCAUAAGAUAUAGUCGGACCUCUCCUUAAUGGGAGCUAGCGGAUGAAGUGAUGCAACACUGGAGCCGCUGGGAACUAAUUUGUAUGCGAAAGUAUAUUGAUUAGUUUUGGAGUACUCGUGGUCG
A digest of the protocol:
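Six replicate transformations of E. coli BL21(DE3) with a pET-22b(+) library were grown overnight at 37°C or 30°C. The library randomised all eight P1ex-region intron nucleotides, the intron lying in the knt kanamycin-resistance gene, and plates were LB agar with or without 25 μg/mL kanamycin plus 100 μg/mL carbenicillin, 50 μM IPTG and 0.2% rhamnose. Pooled colonies were amplicon-sequenced on an Illumina HiSeq 2500, and fitness is the DiMSum error-weighted combination of wild-type-normalised replicate fold changes, kanamycin versus none.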

± gives the uncertainty stated by the source.

With UCCGAGCAAUAUUACGGGCC, the “self-splicing fitness (ln)” value reads like this: (30 °C) -3.8 ± 0.3; (37 °C) -2.94 ± 0.35.

Turning to UCCGAGCAAUAUUACGGUCU, the “self-splicing fitness (ln)” value is, setting by setting: (30 °C) -2.4 ± 0.15; (37 °C) -1.58 ± 0.13.

Take UCCGAGCAAUAUUACGUAGA: the “self-splicing fitness (ln)” value was -2.09 ± 0.14 (30 °C) and -1.42 ± 0.2 (37 °C).

For UCCGAGCAAUAUUACGUAGC, the “self-splicing fitness (ln)” value runs as follows: (30 °C) -3.33 ± 0.23; (37 °C) -2.14 ± 0.28.

As for UCCGAGCAAUAUUACGUCCA, the “self-splicing fitness (ln)” value is -2.89 ± 0.38 (30 °C) and -2.37 ± 0.34 (37 °C).

With UCCGAGCAAUAUUACGUCUC, the “self-splicing fitness (ln)” value (30 °C) was -2.26 ± 0.21 and the “self-splicing fitness (ln)” value (37 °C) was -2.99 ± 0.43.

For the sequence UCCGAGCAAUAUUACGUGCA, the “self-splicing fitness (ln)” value is -1.45 ± 0.15 (30 °C) and -1.47 ± 0.12 (37 °C).

Consider UCCGAGCAAUAUUACGUGCC, for which the “self-splicing fitness (ln)” value by setting is: (30 °C) -3.03 ± 0.26; (37 °C) -2.97 ± 0.35.

As to UCCGAGCAAUAUUACGUGCU, the “self-splicing fitness (ln)” value is -3.32 ± 0.26 (30 °C) and -2.61 ± 0.29 (37 °C).

In the case of UCCGAGCAAUAUUACGUUCG, the “self-splicing fitness (ln)” value is, setting by setting: (30 °C) -2.69 ± 0.49; (37 °C) -1.78 ± 0.42.

As to UCCGAGCAAUAUUACGUUGC, the “self-splicing fitness (ln)” value by setting is: (30 °C) -3.03 ± 0.21; (37 °C) -2.16 ± 0.24.

With UCCUAGCAAUAUUACGAAGG, the “self-splicing fitness (ln)” value is, setting by setting: (30 °C) -2.91 ± 0.15; (37 °C) -2.1 ± 0.19.

In the case of UCCUAGCAAUAUUACGAGCG, the “self-splicing fitness (ln)” value reads like this: (30 °C) -1.5 ± 0.099; (37 °C) -1.15 ± 0.14.

As to UCCUAGCAAUAUUACGAUAU, the “self-splicing fitness (ln)” value is, setting by setting: (30 °C) -3.78 ± 0.28; (37 °C) -2.72 ± 0.23.

Regarding UCCUAGCAAUAUUACGAUCG, the “self-splicing fitness (ln)” value by setting is: (30 °C) -3.36 ± 0.21; (37 °C) -2.33 ± 0.26.

On to UCCUAGCAAUAUUACGCGCA, for which the “self-splicing fitness (ln)” value is -1.31 ± 0.1 (30 °C) and -0.0853 ± 0.097 (37 °C).

Turning to UCCUAGCAAUAUUACGCGGG, the “self-splicing fitness (ln)” value by setting is: (30 °C) -3.2 ± 0.1; (37 °C) -2.66 ± 0.14.

In the case of UCCUAGCAAUAUUACGCGUC, the “self-splicing fitness (ln)” value is, setting by setting: (30 °C) -3.53 ± 0.35; (37 °C) -3.53 ± 0.42.

Turning to UCCUAGCAAUAUUACGGACA, the “self-splicing fitness (ln)” value (30 °C) was -2.68 ± 0.37 and the “self-splicing fitness (ln)” value (37 °C) was -2.29 ± 0.31.

In the case of UCCUAGCAAUAUUACGGAUA, the “self-splicing fitness (ln)” value reads like this: (30 °C) -2.52 ± 0.2; (37 °C) -0.547 ± 0.13.

Take UCCUAGCAAUAUUACGGCCA: the “self-splicing fitness (ln)” value is -3.17 ± 0.15 (30 °C) and -1.74 ± 0.11 (37 °C).

With UCCUAGCAAUAUUACGGCUA, the “self-splicing fitness (ln)” value (37 °C) is -2.35 ± 0.27.

Consider UCCUAGCAAUAUUACGGUAU, for which the “self-splicing fitness (ln)” value was -3.23 ± 0.16 (30 °C) and -1.76 ± 0.18 (37 °C).

As for UCCUAGCAAUAUUACGGUCU, the “self-splicing fitness (ln)” value by setting is: (30 °C) -1.59 ± 0.06; (37 °C) -0.444 ± 0.07.

As to UCCUAGCAAUAUUACGUACG, the “self-splicing fitness (ln)” value is -3.14 ± 0.18 (30 °C) and -1.78 ± 0.2 (37 °C).

Turning to UCCUAGCAAUAUUACGUAUC, the “self-splicing fitness (ln)” value by setting is: (30 °C) -2.65 ± 0.14; (37 °C) -2.44 ± 0.21.

For the sequence UCCUAGCAAUAUUACGUCGA, the “self-splicing fitness (ln)” value reads like this: (30 °C) -0.0892 ± 0.07; (37 °C) 0.0864 ± 0.078.

Take UCCUAGCAAUAUUACGUGCG: the “self-splicing fitness (ln)” value is -3.5 ± 0.2 (30 °C) and -1.98 ± 0.16 (37 °C).

UCCUAGCAAUAUUACGUUUU: the “self-splicing fitness (ln)” value (30 °C) is -3.41 ± 0.21 and the “self-splicing fitness (ln)” value (37 °C) is -2.69 ± 0.2.

For the sequence UCGAAGCAAUAUUACGAAUA, the “self-splicing fitness (ln)” value by setting is: (30 °C) -1.96 ± 0.2; (37 °C) -1.76 ± 0.3.

Take UCGAAGCAAUAUUACGACAC: the “self-splicing fitness (ln)” value (30 °C) was -2.44 ± 0.41 and the “self-splicing fitness (ln)” value (37 °C) is -2.26 ± 0.38.

For UCGAAGCAAUAUUACGACUG, the “self-splicing fitness (ln)” value is -1.11 ± 0.095 (30 °C) and -0.774 ± 0.13 (37 °C).

Take UCGAAGCAAUAUUACGAGGA: the “self-splicing fitness (ln)” value runs as follows: (30 °C) -3.21 ± 0.39; (37 °C) -1.19 ± 0.27.

On to UCGAAGCAAUAUUACGAUAA, for which the “self-splicing fitness (ln)” value is -2.17 ± 0.13 (30 °C) and -1.13 ± 0.13 (37 °C).

As for UCGAAGCAAUAUUACGCGGG, the “self-splicing fitness (ln)” value (30 °C) was -2.18 ± 0.19 and the “self-splicing fitness (ln)” value (37 °C) was -1.68 ± 0.19.

Turning to UCGAAGCAAUAUUACGGACG, the “self-splicing fitness (ln)” value is -0.371 ± 0.13 (30 °C) and 0.158 ± 0.12 (37 °C).

Consider UCGAAGCAAUAUUACGGAUC, for which the “self-splicing fitness (ln)” value runs as follows: (30 °C) -3.14 ± 0.23; (37 °C) -2.64 ± 0.37.
